The source of these data is article PMC3562429 (Developmental cell, 2013).

In this experiment the target is T1, Aim3 (budding yeast, UniProt P38266 1-947).
T1 sequence (looked up): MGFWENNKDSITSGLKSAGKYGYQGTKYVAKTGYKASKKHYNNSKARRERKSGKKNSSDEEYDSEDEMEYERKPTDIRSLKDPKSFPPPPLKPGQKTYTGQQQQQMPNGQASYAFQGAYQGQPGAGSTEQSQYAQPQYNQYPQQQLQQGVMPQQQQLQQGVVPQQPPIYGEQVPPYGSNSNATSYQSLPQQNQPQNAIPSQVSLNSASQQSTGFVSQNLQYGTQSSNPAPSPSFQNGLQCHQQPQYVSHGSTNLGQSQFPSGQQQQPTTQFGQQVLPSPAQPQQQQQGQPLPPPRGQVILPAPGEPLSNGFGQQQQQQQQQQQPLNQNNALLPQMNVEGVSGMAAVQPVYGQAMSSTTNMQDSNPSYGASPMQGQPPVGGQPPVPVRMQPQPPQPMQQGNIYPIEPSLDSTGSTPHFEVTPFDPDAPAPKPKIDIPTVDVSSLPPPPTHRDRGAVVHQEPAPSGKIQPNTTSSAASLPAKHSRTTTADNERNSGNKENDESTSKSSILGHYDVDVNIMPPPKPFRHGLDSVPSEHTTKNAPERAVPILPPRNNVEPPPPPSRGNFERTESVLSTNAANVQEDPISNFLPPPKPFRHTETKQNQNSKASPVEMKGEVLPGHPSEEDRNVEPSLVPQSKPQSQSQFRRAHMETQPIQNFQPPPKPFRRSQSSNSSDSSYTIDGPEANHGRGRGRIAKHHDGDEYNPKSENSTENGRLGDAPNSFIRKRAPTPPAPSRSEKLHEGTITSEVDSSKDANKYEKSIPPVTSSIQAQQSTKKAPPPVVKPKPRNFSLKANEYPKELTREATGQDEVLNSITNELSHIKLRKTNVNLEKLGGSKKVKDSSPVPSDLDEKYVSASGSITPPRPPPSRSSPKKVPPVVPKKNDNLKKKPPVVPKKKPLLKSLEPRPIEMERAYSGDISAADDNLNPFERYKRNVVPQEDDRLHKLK
In words: pull-down.

B1: Abp1-9myc (Actin binding protein 1) (natural protein, budding yeast, UniProt P15891 1-592, looked up)
chain: MALEPIDYTTHSREIDAEYLKIVRGSDPDTTWLIISPNAKKEYEPESTGSSFHDFLQLFDETKVQYGLARVSPPGSDVEKIIIIGWCPDSAPLKTRASFAANFAAVANNLFKGYHVQVTARDEDDLDENELLMKISNAAGARYSIQTSSKQQGKASTPPVKKSFTPSKSPAPVSKKEPVKTPSPAPAAKISSRVNDNNDDDDWNEPELKERDFDQAPLKPNQSSYKPIGKIDLQKVIAEEKAKEDPRLVQKPTAAGSKIDPSSDIANLKNESKLKRDSEFNSFLGTTKPPSMTESSLKNDDDKVIKGFRNEKSPAQLWAERKAKQNSGNAETKAEAPKPEVPEDEPEGEPDVKDLKSKFEGLAASEKEEEEMENKFAPPPKKSEPTIISPKPFSKPQEPVKAEEAEQPKTDYKKIGNPLPGMHIEADNEEEPEENDDDWDDDEDEAAQPPLPSRNVASGAPVQKEEPEQEEIAPSLPSRNSIPAPKQEEAPEQAPEEEIEEEAEEAAPQLPSRSSAAPPPPPRRATPEKKPKENPWATAEYDYDAAEDNELTFVENDKIINIEFVDDDWWLGELEKDGSKGLFPSNYVSLGN
Turning to B1, the binding result was “binds”.
